The results in this text go back to patent US20250109171A1, “COMPOUNDS AND COMPOSITIONS FOR TARGETED THERAPY OF RENAL DISEASES” (SHANGHAI MICURX PHARMACEUTICALS CO., LTD., priority 2021, published 2025).

Data set [1] is described as follows: Rodent (mouse) PK model of intravenous administration: dexamethasone levels in kidney tissue. It is filed as in vivo. As to conditions: for Kidney drug (dexamethasone) concentration: T = 24 h, the last time point evaluated; for Kidney dexamethasone levels greater than those achieved through injection of unconjugated dexamethasone: drug concentration in kidney tissue, summary of Table 1. The procedure: Preferential renal targeting validating the delivery of compounds provided herein into kidneys (or at the site of a kidney injury) is evaluated, for example, by pharmacokinetic (PK) tests, such as in a standard rodent PK test. PK data are generally used to establish the key parameters predictive of the therapy outcome. Thus, a drug concentration (C) at given time points, drug concentration at the target tissue(s) (CTarget), area under the curve (AUC) for a plot monitoring the change in the systemic drug concentration over time and other parameters are generally predictive of therapeutic efficacy. For example, drug concentration at an organ affected by cancer is important for effective action of anticancer agents (as described, for example, by Zhang et al. in Drug Metabolism and Disposition. 2019, vol. 47, p. 1122).
Representative compounds provided herein were tested in a rodent PK model of intravenous administration performed analogously to methods described in the monograph Current Protocols in Pharmacology, 2005, 7.1.1-7.1.26, John Wiley & Sons, Inc. Illustrative mouse PK data for the compounds of Examples 1 and 2 are summarized in the Table 1 below.

In data set [2] the test system is cisplatin-induced acute kidney injury (AKI). As to the kind of experiment: Cisplatin-induced acute kidney injury mouse model (blood CREA and BUN on day 3). It is filed as in vivo, C57BL/6 mouse. The conditions noted are these: cisplatin 20 mg/kg i.p.; test articles i.v. after 1 h, 4 mg/kg; about 20% dexamethasone equivalent dosing; FIG. 1. The procedure: Specifically, in one of the tests, cisplatin (20 mg/kg) was administrated to C57BL/6 mouse (male, weight range 20-25 g) by intraperitoneal injection to induce acute kidney injury. After 1 h, testing articles (saline, or dexamethasone, or a compound of Example 1 or 2) were given by intravenously. On day 3, blood CREA (creatinine) and BUN (blood urea nitrogen) were determined.

Where [3] appears, read: T = 3 h, injection into mouse tail vein.
Where [4] appears, read: T = 3 h, injection into mouse tail vein, dexamethasone 1 mg/kg, Examples 4 mg/kg.

Positions of bridges follow the written chain, without caps; N, C: chain ends. Non-standard residues stand in square brackets, D forms with d. Residues, ends and D or L forms follow the SMILES beside them. *: point of attachment. Succinyl(O21-dexamethasone) = C[C@@H]1C[C@H]2[C@@H]3CCC4=CC(=O)C=C[C@]4(C)[C@@]3(F)[C@@H](O)C[C@]2(C)[C@@]1(O)C(=O)COC(=O)CCC(=O)*; X1 = CC(C(=O)OCC(=O)[C@@]1(O)[C@H](C)C[C@H]2[C@@H]3CCC4=CC(=O)C=C[C@]4(C)[C@@]3(F)[C@@H](O)C[C@@]21C)C(C)C(=O)*; Dab = NCC[C@H](N)C(=O)O

For `C[C@@H]1C[C@H]2[C@@H]3CCC4=CC(=O)C=C[C@]4(C)[C@@]3(F)[C@@H](O)C[C@]2(C)[C@@]1(O)C(=O)CO` [Dexamethasone, dexamethasone, reference compound], in data set [1] (setting [3]), the “Enhanced dexamethasone levels in kidney expressed per ratio vs. dosing of free dexamethasone” value amounted to 1. For the same compound, the “Drug levels from standard injection of unconjugated drug” value in data set [1] (after only 6 h) was “virtually undetectable”. For the same compound, the concentration at 3 h in data set [1] (kidney, intravenous, T = 3 h, injection into mouse tail vein, dexamethasone 1 mg/kg, Examples 4 mg/kg, read-out: Kidney tissue concentration (dexamethasone levels in kidneys)) was 13 ng/g.

`CC(C)C[C@@H]1NC(=O)[C@@H](Cc2ccccc2)NC(=O)[C@H](CCN)NC(=O)[C@@H](NC(=O)[C@H](CCN)NC(=O)[C@@H](NC(=O)C(C)C(C)C(=O)OCC(=O)[C@@]2(O)[C@H](C)C[C@H]3[C@@H]4CCC5=CC(=O)C=C[C@]5(C)[C@@]4(F)[C@@H](O)C[C@@]32C)[C@@H](C)O)CCNC(=O)[C@H]([C@@H](C)O)NC(=O)[C@H](CCN)NC(=O)[C@H](CCN)NC1=O` (stereo partly shown) [Example 1] (X1-T[Dab][Dab][Dab][dF]L[Dab][Dab]T; lactam 3-C): in data set [1] (setting [3]), the “Enhanced dexamethasone levels in kidney expressed per ratio vs. dosing of free dexamethasone” value was 9.4. Moreover, the “Kidney tissue concentration (dexamethasone levels in kidneys)” value in data set [1] (setting [4]) is recorded as 122.2 ng/g. Moreover, in data set [1], the “Kidney drug (dexamethasone) concentration” value was 21.5 ng/g and the “Kidney dexamethasone levels greater than those achieved through injection of unconjugated dexamethasone” value is “about 9 fold”. Moreover, in data set [2], the “Anti-inflammatory efficacy in the AKI model per BUN and CREA values, compared to dexamethasone” value is on record as “greatly increased anti-inflammatory efficacy”.

As for `CC(C)C[C@@H]1NC(=O)[C@@H](Cc2ccccc2)NC(=O)[C@H](CCN)NC(=O)[C@@H](NC(=O)[C@H](CCN)NC(=O)[C@@H](NC(=O)CCC(=O)OCC(=O)[C@@]2(O)[C@H](C)C[C@H]3[C@@H]4CCC5=CC(=O)C=C[C@]5(C)[C@@]4(F)[C@@H](O)C[C@@]32C)[C@@H](C)O)CCNC(=O)[C@H]([C@@H](C)O)NC(=O)[C@H](CCN)NC(=O)[C@H](CCN)NC1=O` [Example 2] ({Succinyl(O21-dexamethasone)}-T[Dab][Dab][Dab][dF]L[Dab][Dab]T; lactam 3-C), the “Enhanced dexamethasone levels in kidney expressed per ratio vs. dosing of free dexamethasone” value in data set [1] (setting [3]) is given as 7.2. Besides, the “Kidney tissue concentration (dexamethasone levels in kidneys)” value in data set [1] (setting [4]) is recorded as 93.4 ng/g. Besides, in data set [1], the “Kidney drug (dexamethasone) concentration” value turned out to be 18.5 ng/g and the “Kidney dexamethasone levels greater than those achieved through injection of unconjugated dexamethasone” value is around 7 fold. Besides, the “Anti-inflammatory efficacy in the AKI model per BUN and CREA values, compared to dexamethasone” value in data set [2] is on record as “greatly increased anti-inflammatory efficacy”.
